Results on seven molecules are retold here after patent US20210139579A1 (NBE THERAPEUTICS, published 2021).

In assay [1] the target is T1, human ROR1 (hROR1) on the cell surface (human, UniProt Q01973 30-937).
T1 construct: whole, on cells; Endogenous on the human lines 697, MDA-MB-468, HS-578T, A549 and HT-29; ectopically expressed on murine EMT-6 cells (clone 14); also called full-length ROR1 (NP_005003.2)
The experiment in a line: flow cytometry on human cancer cell lines, 2A2 at 2 µg/mL. In general terms: A flow cytometer gives signals particle by particle.

In assay [2] the target is T2, Recombinant human twin strep-tagged ROR2 extracellular domain (human, UniProt Q01974 34-403).
T2 construct: extracellular domain; also called strep-tagged human ROR2; recombinant, purified hROR2
T2 sequence (Q01974 other isoform, or with tags, fused parts or gaps): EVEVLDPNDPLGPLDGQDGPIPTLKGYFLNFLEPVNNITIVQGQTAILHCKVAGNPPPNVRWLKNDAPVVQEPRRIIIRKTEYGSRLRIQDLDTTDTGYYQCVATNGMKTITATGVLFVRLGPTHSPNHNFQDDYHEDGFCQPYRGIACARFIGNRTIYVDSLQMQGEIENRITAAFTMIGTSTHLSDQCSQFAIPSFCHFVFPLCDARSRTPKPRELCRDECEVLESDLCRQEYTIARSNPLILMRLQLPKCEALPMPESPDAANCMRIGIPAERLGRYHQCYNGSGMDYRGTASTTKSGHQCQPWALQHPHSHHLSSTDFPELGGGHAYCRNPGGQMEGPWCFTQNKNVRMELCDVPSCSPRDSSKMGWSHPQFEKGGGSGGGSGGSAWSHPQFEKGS
Put plainly: ELISA on coated twin strep-tagged hROR2. Here is the method: (§1) Each well of a 96-well plate was coated with 100 μL of 2 μg/mL strep-tagged human ROR1 or ROR2 (from Example 5) in 0.1 M bicarbonate coating buffer (pH 9.6), and incubated for 12 h at 4° C.
(In general: An ELISA detects its analyte on a solid surface through an enzyme-linked reagent.)

In assay [3] the target is T3, StrepII-tagged human ROR1-extracellular domain (human, UniProt Q01973 30-406).
T3 construct: also called strep-tagged human ROR1; recombinant, purified hROR1
T3 sequence (Q01973 other isoform, or with tags, fused parts or gaps): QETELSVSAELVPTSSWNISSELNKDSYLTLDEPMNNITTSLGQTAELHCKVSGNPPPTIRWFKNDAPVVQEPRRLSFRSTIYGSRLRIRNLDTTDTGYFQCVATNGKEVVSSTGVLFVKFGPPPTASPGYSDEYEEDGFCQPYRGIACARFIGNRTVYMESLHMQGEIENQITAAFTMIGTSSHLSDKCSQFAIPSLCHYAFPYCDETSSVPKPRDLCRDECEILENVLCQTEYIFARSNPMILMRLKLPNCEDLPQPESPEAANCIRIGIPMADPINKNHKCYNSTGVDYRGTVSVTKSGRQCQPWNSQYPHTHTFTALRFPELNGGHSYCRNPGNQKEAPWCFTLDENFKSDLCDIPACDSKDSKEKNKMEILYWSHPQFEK
Put plainly: ELISA on coated strep-tagged hROR1, detected with anti-human Fc-gamma HRP. Here is the method: as §1

T1 sequence (Q01973 30-937): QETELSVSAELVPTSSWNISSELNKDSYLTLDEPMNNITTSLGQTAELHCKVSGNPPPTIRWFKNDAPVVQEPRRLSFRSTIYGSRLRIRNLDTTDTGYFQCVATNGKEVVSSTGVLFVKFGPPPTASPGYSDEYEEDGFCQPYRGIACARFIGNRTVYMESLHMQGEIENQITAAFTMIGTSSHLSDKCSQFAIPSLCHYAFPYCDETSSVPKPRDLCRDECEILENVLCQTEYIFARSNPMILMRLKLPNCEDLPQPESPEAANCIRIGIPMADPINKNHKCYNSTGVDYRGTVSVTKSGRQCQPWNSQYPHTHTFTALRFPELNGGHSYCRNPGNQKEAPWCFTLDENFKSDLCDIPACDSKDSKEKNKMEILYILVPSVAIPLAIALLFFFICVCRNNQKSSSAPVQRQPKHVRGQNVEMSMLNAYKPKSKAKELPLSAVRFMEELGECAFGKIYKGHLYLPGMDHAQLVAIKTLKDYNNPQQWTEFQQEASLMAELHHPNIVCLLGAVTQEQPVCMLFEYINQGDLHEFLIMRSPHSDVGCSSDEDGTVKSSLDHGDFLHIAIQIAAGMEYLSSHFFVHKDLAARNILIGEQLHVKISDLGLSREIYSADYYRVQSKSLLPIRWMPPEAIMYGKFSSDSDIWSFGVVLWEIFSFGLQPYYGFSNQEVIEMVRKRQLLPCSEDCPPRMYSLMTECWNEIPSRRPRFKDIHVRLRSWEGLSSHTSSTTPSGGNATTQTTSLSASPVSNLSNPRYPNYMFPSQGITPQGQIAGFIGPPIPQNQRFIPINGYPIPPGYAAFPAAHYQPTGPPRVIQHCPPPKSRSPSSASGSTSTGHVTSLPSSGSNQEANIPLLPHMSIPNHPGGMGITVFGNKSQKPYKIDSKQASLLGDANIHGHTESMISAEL

B1: 2A2 (mAb066) (antibody, human IgG1)
heavy: not shown
light: DIVMTQSQKIMSTTVGDRVSITCKASQNVDAAVAWYQQKPGQSPKLLIYSASNRYTGVPDRFTGSGSGTDFTLTISNMQSEDLADYFCQQYDIYPYTFGGGTKLEIKRTVAAPSVFIFPPSDEQLKSGTASVVCLLNNFYPREAKVQWKVDNALQSGNSQESVTEQDSKDSTYSLSSTLTLSKADYEKHKVYACEVTHQGLSSPVTKSFNRGECGGGGGSLPETG
notes: IgG with human IgG1 and kappa constant regions; also called anti-human ROR1 antibody 2A2; not shown: Strep tag
As for B1, the binding result in assay [1] is reported as “binds”.

B2: ERR1-301 (mAb027) (antibody, human IgG1, V domains shown)
VH: QEQLEESGGGLVTPGGSLTLTCTASGFTISTYHMSWVRQAPGKGLEWIGSIYAGSGSTYYASWVNGRFTISSNTTQNTVSLQMNSLTVADTATYFCARDHPSYGMDLWGPGTLVTVSS
VL: SYELTQLPSVSVSLGQTARITCGGNSIGSKAVNWYQQKPGLAPGLLIYDDDERPSGVPDRFSASNSGDTATLTISGAQAEDEADYYCQLWDSSAVAYVFGGGTQLTVTG
notes: Chimeric rabbit/human IgG1, lambda; not shown: Strep tag
Turning to B2, the binding result in assay [2] was “no binding”; in assay [3], “binds”.

B3: ERR1-Top43 (mAb036) (antibody, human IgG1, V domains shown)
VH: QSLEESGGRLVTPGTPLTLTCTVSGFSLSSYWMSWVRQAPGKGLEWIGAIYGSGNTYYASWAKGRFTISKTSTTVDLKITSPTTEDTATYFCARDVHSTATDLWGPGTLVTISS
VL: SYELTQLPSVSVSLGQTARITCGGNNIGSKAVNWYQQKPGLAPGLLIYNDDERPSGVPDRFSGSNSGDTATLTISGAQAGDEADYYCQLWDSSAGAYVFGGGTQLTVTG
notes: as for B2
Turning to B3, the binding result was “no binding” in assay [2] and “binds” in assay [3].

B4: ERR1-403 (mAb035) (antibody, human IgG1, V domains shown)
VH: QEQLKESGRGLVQPGGSLKLSCKASGFDFSGWYMTWVRQAPGKGLEWIGTIGTTKGRTYYASWVNGRFTISSDNAQNTVDLQMNSLTAADRATYFCVRGSDYFDLWGPGTLVTISS
VL: SYELTQLPSVSVSLGQTARITCGGNSIGSKAVNWYQQKPGLAPGLLIYDDDERPSGVPARFSGSNSGDTATLTISGAQAGDEADYYCQLWDSSAGAYVFGGGTQLTVTG
notes: as for B2
Consider B4, for which the binding result was “no binding” in assay [2] and “binds” in assay [3].

B5: ERR1-324 (mAb034) (antibody, human IgG1)
heavy: not shown
light: ELVLTQTPSPVSAAVGGTVTINCQASQSVYGNNELAWYQQKPGQPPKLLIYRASILTSGVPSRFKGSGSGTQFTLTISNVQREDAATYYCLGGYVSQSYRAAFGGGTELEILRTVAAPSVFIFPPSDEQLKSGTASVVCLLNNFYPREAKVQWKVDNALQSGNSQESVTEQDSKDSTYSLSSTLTLSKADYEKHKVYACEVTHQGLSSPVTKSFNRGECGGGGGSLPETG
notes: Chimeric rabbit/human IgG1, kappa; not shown: Strep tag
Regarding B5, the binding result in assay [2] was “no binding”; in assay [3] it was “binds”.

B6: ERR1-306 (mAb033) (antibody, human IgG1, V domains shown)
VH: QEQLKESGGGLVQPGGSLKLSCKASGFDLSNYGVSWVRQAPGKGLEWIGYIDPTFDYTYYASWVNGRFSISRENTQNTVSLQINSLTPADTATYFCARWVYGVDDYGDGNWLDLWGQGTLVTISS
VL: QFVLTQSPSVSAALGASAKLTCTLSSAHKTYTIDWYQQQQGEAPRYLMELKSDGSYTKGTGVPDRFSGSSSGADRYLIIPSVQADDEADYYCGTDYSGGYVFGGGTQLTVTG
notes: as for B2
With B6, in assay [2], the binding result is “no binding”.

B7: XBR1-402 (mAb031) (antibody, human IgG1, V domains shown)
VH: QEQQKESGGGLFKPTDTLTLTCTASGFDISSYYMSWVRQAPGNGLEWIGAIGISGNAYYASWAKSRSTITRNTNLNTVTLKMTSLTAADTATYFCARDHPTYGMDLWGPGTLVTVSS
VL: SYELTQLPSVSVSLGQTARITCEGNNIGSKAVHWYQQKPGLAPGLLIYDDDERPSGVPDRFSGSNSGDTATLTISGAQAGDEADYYCQVWDSSAYVFGGGTQLTVTG
notes: as for B2
For the molecule B7, the figures for the binding result in assay [2] and in assay [3] were “no binding” and “binds”, respectively.
